Measured values from patent US20260242507A1 (KITE PHARMA, published 2026).
Positions count from the first letter of the chain named. Blank lines part the entries; values can stand above or below the molecule they belong to.

Tests used:
[1] = target: T1, recombinant human GPC3(Q25-H559)-6xHis (human, UniProt P51654 25-559); assay: BLI (Octet Red96), scFv mFc captured on an AMC biosensor, rhGPC3 lot 2 at a single 500 nM concentration, 1:1 model
T1 construct: range 25-559; also called rhGPC3; RhGPC3

[2] = target: mouse GPC3 overexpressed on K562 cells (mouse) (UniProt Q8CFZ4); assay: cell-based or functional assay
[3] = target: T2, human GPC5 overexpressed on K562 cells (human) (UniProt P78333); assay: cell-based or functional assay
T2 sequence (looked up): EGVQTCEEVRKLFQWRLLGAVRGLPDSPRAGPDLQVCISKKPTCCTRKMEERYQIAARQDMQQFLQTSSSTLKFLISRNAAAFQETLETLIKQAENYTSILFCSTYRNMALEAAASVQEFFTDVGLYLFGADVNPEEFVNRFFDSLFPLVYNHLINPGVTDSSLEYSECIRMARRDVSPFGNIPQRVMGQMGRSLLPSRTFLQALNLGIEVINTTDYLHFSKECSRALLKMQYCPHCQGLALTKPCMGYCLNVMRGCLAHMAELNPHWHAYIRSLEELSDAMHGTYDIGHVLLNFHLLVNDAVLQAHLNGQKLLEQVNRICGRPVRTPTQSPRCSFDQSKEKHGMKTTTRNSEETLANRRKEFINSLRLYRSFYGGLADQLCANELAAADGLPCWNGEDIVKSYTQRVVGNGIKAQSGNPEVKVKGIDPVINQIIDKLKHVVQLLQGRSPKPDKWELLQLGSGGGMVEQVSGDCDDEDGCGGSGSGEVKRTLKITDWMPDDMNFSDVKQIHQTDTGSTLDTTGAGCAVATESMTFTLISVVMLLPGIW

[4] = target: human GPC3 (glypican 3), full length, on cells (human) (UniProt P51654); assay: cell-based or functional assay
[5] = target: T1, recombinant human GPC3(Q25-H559)-6xHis; assay: BLI (Octet Red96), scFv-Fc captured on AMC biosensors, rhGPC3 lot 1 as analyte, 1:1 model, global fit
Method: (§1) A kinetics constant for mAb1-1 scFv mFc binding to its target, GPC3, was determined using a Sartorius Octet Red96 with AMC biosensors. mAb1-1 scFv-Fc was diluted to 2 ug/mL and captured onto 7 AMC biosensor tips under agitation. One biosensor was left blank as a reference. Two lots of recombinant human GPC3(Q25-H559)-6×His (rhGPC3) at 464.3, 154.8, 51.59, 17.2, 5.73, 1.911 and 0 nM were used as analytes. The association phase was measured for 90 sec and the dissociation was measured for 120 sec. All measurements were corrected for baseline drift by subtracting a control sensor exposed to running buffer only. The data were analyzed using a 1:1 interaction model with global fitting for each analyte lot separately, using Octet analysis software.

[6] = target: T1, recombinant human GPC3(Q25-H559)-6xHis; assay: BLI (Octet Red96), scFv-Fc captured on AMC biosensors, rhGPC3 lot 2 as analyte, 1:1 model, global fit
Method: as §1

Sequence of human GPC3 (glypican 3), full length, on cells (human) (P51654 25-554 limits assumed): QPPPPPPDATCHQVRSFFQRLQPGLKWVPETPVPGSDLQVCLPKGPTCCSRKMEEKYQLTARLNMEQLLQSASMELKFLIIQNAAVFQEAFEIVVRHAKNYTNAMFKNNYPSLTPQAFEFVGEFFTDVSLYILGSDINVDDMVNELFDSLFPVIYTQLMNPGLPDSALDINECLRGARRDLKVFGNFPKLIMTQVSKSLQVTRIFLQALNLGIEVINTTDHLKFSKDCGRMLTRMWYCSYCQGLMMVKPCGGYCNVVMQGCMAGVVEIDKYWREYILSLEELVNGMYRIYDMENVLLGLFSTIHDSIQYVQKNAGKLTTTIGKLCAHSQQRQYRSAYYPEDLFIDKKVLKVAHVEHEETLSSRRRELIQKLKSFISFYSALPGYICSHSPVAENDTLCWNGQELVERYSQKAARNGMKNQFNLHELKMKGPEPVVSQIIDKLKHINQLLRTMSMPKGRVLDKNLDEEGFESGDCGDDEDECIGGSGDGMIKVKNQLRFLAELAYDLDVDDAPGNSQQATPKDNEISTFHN
Sequence of mouse GPC3 overexpressed on K562 cells (mouse) (Q8CFZ4 25-579): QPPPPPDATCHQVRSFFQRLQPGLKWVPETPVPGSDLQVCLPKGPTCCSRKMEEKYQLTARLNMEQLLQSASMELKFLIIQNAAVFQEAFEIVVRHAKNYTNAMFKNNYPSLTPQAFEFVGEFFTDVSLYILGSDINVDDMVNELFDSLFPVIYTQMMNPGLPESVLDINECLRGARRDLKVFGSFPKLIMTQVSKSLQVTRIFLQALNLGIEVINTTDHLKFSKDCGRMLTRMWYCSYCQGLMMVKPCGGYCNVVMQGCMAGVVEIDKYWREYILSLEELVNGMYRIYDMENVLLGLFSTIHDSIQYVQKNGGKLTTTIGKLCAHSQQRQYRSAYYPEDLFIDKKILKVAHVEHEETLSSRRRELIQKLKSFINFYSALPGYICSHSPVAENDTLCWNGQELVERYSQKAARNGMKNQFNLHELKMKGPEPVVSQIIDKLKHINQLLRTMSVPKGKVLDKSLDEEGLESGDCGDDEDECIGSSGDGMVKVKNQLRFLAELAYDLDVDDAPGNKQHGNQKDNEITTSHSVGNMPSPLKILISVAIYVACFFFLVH
T1 sequence (P51654 other isoform, or with tags, fused parts or gaps limits assumed, form in doubt): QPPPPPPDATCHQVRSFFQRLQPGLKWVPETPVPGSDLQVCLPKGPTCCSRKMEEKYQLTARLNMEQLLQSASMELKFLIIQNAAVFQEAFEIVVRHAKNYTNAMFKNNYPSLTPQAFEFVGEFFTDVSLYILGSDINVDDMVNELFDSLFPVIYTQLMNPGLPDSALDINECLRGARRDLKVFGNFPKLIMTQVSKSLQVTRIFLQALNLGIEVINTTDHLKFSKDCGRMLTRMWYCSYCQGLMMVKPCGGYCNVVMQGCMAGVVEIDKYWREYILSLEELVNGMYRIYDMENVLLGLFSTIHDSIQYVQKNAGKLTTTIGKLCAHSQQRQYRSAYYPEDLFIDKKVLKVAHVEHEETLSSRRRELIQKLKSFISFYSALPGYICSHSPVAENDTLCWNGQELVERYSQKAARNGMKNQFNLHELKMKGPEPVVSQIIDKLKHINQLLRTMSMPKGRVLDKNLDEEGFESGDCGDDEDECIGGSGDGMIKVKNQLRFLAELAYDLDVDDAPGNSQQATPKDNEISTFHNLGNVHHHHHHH

Molecule: YP7 scFv mFc (Fc fusion)
Kd [1]: 8.73 nM
koff [1]: 0.000675 s⁻¹
kon [1]: 77300 M⁻¹ s⁻¹

B1: hmAb1-2 CAR (protein, part only; not given: hinge, transmembrane and signaling domains, part only)
chain, part: QVQLVQSGAEVKKPGASVKVSCKASGYTFTDYYIHWVRQAPGQGLEWMGEIYPGSGNTYYAQKFQGRVTMTRDTSTSTVYMELSSLRSEDTAVYYCARGNDYDAWFVYWGQGTLVTVSSGSTSGSGKPGSGEGSTKGDIVMTQSPDSLAVSLGERATINCKSSQSLLNSGTRKNYLAWYQQKPGQPPKLLIYWASIRESGVPDRFSGSGSGTDFTLTISSLQAEDVAVYYCKQSYSLYTFGQGTKLEIK
% dead target cells, flow cytometry, 48h, K562-mouse GPC3 [2]: 48.3%
% dead target cells, flow cytometry, 48h, K562-human GPC5 [3]: 18.2%
% cytolysis of Hep3B at 164h, xCELLigence, 500 CAR T cells, Donor 1 [4]: 95.7%
% cytolysis of Hep3B at 164h, xCELLigence, 500 CAR T cells, Donor 2 [4]: 91.3%
% dead target cells, flow cytometry, 48h, Hep3B [4]: 89.4%

B4: hmAb1-1 CAR (protein, part only; not given: hinge, transmembrane and signaling domains, part only)
chain, part: B1 chain, part with A24T, R72A, V79A, A156V, I158M, L221V
% dead target cells, flow cytometry, 48h, K562-mouse GPC3 [2]: 53.9%
% dead target cells, flow cytometry, 48h, K562-human GPC5 [3]: 17.7%
% cytolysis of Hep3B at 164h, xCELLigence, 500 CAR T cells, Donor 1 [4]: 96.4%
% cytolysis of Hep3B at 164h, xCELLigence, 500 CAR T cells, Donor 2 [4]: 93.4%
% dead target cells, flow cytometry, 48h, Hep3B [4]: 91.1%

B5: hmAb1-4 CAR (protein, part only; not given: hinge, transmembrane and signaling domains, part only)
chain, part: B1 chain, part with A24T, M48I, V68A, M70L, R72A, V79A, L83F
% dead target cells, flow cytometry, 48h, K562-mouse GPC3 [2]: 52.7%
% dead target cells, flow cytometry, 48h, K562-human GPC5 [3]: 16.4%
% cytolysis of Hep3B at 164h, xCELLigence, 500 CAR T cells, Donor 1 [4]: 94.9%
% cytolysis of Hep3B at 164h, xCELLigence, 500 CAR T cells, Donor 2 [4]: 89.6%
% dead target cells, flow cytometry, 48h, Hep3B [4]: 89.8%

B7: hmAb1-3 CAR (protein, part only; not given: hinge, transmembrane and signaling domains, part only)
chain, part: B1 chain, part with A24T, R72A, V79A
% dead target cells, flow cytometry, 48h, K562-mouse GPC3 [2]: 50.5%
% dead target cells, flow cytometry, 48h, K562-human GPC5 [3]: 16.3%
% cytolysis of Hep3B at 164h, xCELLigence, 500 CAR T cells, Donor 1 [4]: 97.1%
% cytolysis of Hep3B at 164h, xCELLigence, 500 CAR T cells, Donor 2 [4]: 89.4%
% dead target cells, flow cytometry, 48h, Hep3B [4]: 89.9%

Continued, values first:

% dead target cells, flow cytometry, 48h, K562-mouse GPC3 [2]: 52.9%
% dead target cells, flow cytometry, 48h, K562-human GPC5 [3]: 18.5%
% cytolysis of Hep3B at 164h, xCELLigence, 500 CAR T cells, Donor 1 [4]: 99.3%
% cytolysis of Hep3B at 164h, xCELLigence, 500 CAR T cells, Donor 2 [4]: 95%
% dead target cells, flow cytometry, 48h, Hep3B [4]: 90.5%
B2: hmAb1-5 CAR (protein, part only; not given: hinge, transmembrane and signaling domains, part only)
chain, part: B1 chain, part with A24T, M48I, V68A, M70L, R72A, V79A, L83F, A156V, I158M, L221V

% cytolysis, xCELLigence, Hep3B, High E:T (1,000 CAR T cells) [4]: 100%
% cytolysis, xCELLigence, Hep3B, Low E:T (500 CAR T cells) [4]: 99%
% cytolysis, xCELLigence, Huh7, High E:T (10,000 CAR T cells) [4]: 100%
% cytolysis, xCELLigence, Huh7, Low E:T (500 CAR T cells) [4]: 44%
IFNg secretion after 24 h coculture with Hep3B, Luminex, replicate 1 [4]: 37700 pg/mL
IFNg secretion after 24 h coculture with Hep3B, Luminex, replicate 2 [4]: 39400 pg/mL
IFNg secretion after 24 h coculture with Hep3B, Luminex, replicate 3 [4]: 44500 pg/mL
B3: mAb1-1_DNR2 CAR (mAb1-1 CAR co-expressed with TGFbDNR2) (protein, part only; not given: CAR signaling domains and DN TGFbR2, part only)
chain, part: B1 chain, part with A24T, R72A, V79A, A156V, I158M, L221V

Kd [5]: 32.7 nM
koff [5]: 0.00712 s⁻¹
kon [5]: 218000 M⁻¹ s⁻¹
Kd [6]: 35.2 nM
koff [6]: 0.00785 s⁻¹
kon [6]: 223000 M⁻¹ s⁻¹
B6: mAb1-1 scFv-Fc (single chain variable fragment fused to a murine IgG2A fragment crystallizable domain) (Fc fusion)
chain: B1 chain, part with A24T, R72A, V79A, A156V, I158M, L221V
notes: also called mAb1-1 scFv mFc; not shown: murine IgG2A fragment crystallizable (Fc) domain
